Assay results taken from US20140242084A1 (published 2014).

B1: claudin-5 of primary human microvascular endothelial cells (HMVECs) (other, UniProt O00501 1-218, looked up)
chain: MGSAALEILGLVLCLVGWGGLILACGLPMWQVTAFLDHNIVTAQTTWKGLWMSCVVQSTGHMQCKVYDSVLALSTEVQAARALTVSAVLLAFVALFVTLAGAQCTTCVAPGPAKARVALTGGVLYLFCGLLALVPLCWFANIVVREFYDPSVPVSQKYELGAALYIGWAATALLMVGGCLLCCGAWVCTGRPDLSFPVKYSAPRRPTATGDYDKKNYV
notes: whole, on cells; Endogenous protein, detected by in situ PLA and by co-immunoprecipitation
B4: recombinant human cANGPTL4 (C-terminal region of angiopoietin-like 4) (ligand, UniProt Q9BY76 186-406, looked up)
chain: RDCQELFQVGERQSGLFEIQPQGSPPFLVNCKMTSDGGWTVIQRRHDGSVDFNRPWEAYKAGFGDPHGEFWLGLEKVHSITGDRNSRLAVQLRDWDGNAELLQFSVHLGGEDTAYSLQLTAPVAGQLGATTVPPSGLSVPFSTWDQDHDLRRDKNCAKSLSGGWWFGTCSHSNLNGQYFRSIPQQRQKLKKGIFWKTWRGRYYPLQATTMLIQPMAAEAAS
notes: domain: c terminal region; the tag is not specified; also called rh-cANGPTL4; rhcANGPTL4

What was measured:
[1] = target: B4; assay: figure legend: kinetic PLA and co-immunoprecipitation in HMVECs
Description: Values (means±S.D.) represent mean fold change in the number of interactions compared to the zero time point, as determined from n=3 independent experiments (600 HMVECs) using BlobFinder. […] Protein lysates were collected every 10 minutes (0-180 minutes). Values below each band represent the mean fold change in protein expression level compared with the cognate zero time point (n=3). *, P<0.05; **, P<0.01.

[2] = target: B4; assay: SPR, immobilised cANGPTL4 (FIG. 2B)
Description: (§1) SPR was carried out as previously described17,18 using a BIAcore 2000 system (BIAcore, Uppsala, Sweden). Six concentrations (0.16, 0.32, 0.63, 1.25, 2.50 and 5.0 μM) of recombinant integrin β1, first extracellular domain of VE-cadherin (ECD1), extracellular repeat 1 domain of VE-cadherin (EC1), occludin or JAM-A were used. Integrin was expressed in Drosophila S2 cells17 and various extracellular domains of VE-cadherin and claudin-5 purchased from Abnova. Global fitting of the SPR data was performed as previously described to determine the KD. Preinjection or preincubation with the indicated antibodies or preimmune IgG was performed to determine specific interactions. Each sensorgram was corrected by subtracting a sensorgram obtained from a reference flow cell with no immobilized protein. […] Values are mean±S.D. (n=3)

[3] = target: B4; assay: SPR, immobilised cANGPTL4
Description: as §1

Tie2 = target: T1, Tie2 (human, UniProt Q02763 23-1124); assay: co-immunoprecipitation with anti-cANGPTL4 from lysates of rh-cANGPTL4-treated HMVECs (FIG. 5B)
T1 construct: whole, on cells
T1 sequence (Q02763 23-1124): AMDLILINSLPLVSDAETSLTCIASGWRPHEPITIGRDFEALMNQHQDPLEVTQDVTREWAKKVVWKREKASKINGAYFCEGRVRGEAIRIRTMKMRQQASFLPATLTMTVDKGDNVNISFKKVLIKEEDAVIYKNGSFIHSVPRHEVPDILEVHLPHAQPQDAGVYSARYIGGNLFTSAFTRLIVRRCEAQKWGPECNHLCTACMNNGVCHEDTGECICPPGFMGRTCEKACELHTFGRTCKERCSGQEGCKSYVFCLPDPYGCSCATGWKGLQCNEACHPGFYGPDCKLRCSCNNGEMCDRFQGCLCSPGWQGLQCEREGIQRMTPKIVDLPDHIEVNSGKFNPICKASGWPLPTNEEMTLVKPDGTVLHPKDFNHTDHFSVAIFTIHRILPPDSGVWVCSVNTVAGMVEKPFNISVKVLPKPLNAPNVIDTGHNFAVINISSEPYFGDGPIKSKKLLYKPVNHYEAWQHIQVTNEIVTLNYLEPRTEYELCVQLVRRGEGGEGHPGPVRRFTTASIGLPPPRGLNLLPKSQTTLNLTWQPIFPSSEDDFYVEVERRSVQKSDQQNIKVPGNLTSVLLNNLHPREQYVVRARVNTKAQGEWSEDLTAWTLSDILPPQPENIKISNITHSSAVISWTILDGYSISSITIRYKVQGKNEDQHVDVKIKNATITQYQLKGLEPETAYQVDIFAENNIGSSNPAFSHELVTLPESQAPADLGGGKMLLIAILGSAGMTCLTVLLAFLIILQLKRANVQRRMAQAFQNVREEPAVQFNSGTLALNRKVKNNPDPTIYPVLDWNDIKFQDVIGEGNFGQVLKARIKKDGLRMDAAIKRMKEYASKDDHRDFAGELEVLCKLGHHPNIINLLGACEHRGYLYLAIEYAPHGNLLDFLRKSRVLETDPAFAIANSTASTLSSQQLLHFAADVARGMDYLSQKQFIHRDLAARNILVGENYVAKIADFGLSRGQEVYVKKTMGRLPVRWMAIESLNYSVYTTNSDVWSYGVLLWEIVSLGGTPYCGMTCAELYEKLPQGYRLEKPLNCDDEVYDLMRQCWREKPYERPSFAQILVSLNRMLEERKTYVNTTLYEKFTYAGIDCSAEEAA

Tie1 = target: T2, Tie1 (human, UniProt P35590 22-1138); assay: as above
T2 construct: whole, on cells
T2 sequence (P35590 22-1138): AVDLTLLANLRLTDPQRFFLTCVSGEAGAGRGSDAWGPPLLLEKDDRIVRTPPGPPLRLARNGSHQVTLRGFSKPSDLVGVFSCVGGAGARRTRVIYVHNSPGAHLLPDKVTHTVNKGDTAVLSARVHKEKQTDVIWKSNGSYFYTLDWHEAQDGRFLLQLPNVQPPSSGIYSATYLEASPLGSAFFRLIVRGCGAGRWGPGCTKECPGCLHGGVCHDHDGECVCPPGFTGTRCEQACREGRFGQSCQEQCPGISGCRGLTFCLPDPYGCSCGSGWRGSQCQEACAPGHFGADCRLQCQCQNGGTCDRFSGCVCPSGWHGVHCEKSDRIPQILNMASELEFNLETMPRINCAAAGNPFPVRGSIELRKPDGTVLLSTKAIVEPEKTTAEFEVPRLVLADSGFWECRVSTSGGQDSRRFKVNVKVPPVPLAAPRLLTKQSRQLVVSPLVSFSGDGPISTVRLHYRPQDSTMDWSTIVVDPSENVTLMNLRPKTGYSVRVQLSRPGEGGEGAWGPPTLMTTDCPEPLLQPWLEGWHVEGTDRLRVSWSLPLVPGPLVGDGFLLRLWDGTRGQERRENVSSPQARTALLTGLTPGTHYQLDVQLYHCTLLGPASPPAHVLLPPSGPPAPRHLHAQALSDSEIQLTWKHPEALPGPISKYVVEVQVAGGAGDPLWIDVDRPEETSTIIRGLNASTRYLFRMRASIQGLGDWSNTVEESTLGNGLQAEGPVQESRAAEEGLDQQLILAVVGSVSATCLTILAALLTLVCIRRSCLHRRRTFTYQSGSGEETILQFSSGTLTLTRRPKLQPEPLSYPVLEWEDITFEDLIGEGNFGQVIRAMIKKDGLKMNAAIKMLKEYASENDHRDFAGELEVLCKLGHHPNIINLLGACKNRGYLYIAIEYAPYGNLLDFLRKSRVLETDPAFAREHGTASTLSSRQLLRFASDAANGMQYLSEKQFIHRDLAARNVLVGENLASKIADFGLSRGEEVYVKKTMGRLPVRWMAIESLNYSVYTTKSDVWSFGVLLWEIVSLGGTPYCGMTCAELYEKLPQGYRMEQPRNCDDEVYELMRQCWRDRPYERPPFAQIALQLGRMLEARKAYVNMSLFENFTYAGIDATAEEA

integrin β3 of HMVECs = target: T3, integrin β3 of HMVECs (human, UniProt P05106 27-788); assay: as above
T3 construct: whole, on cells
T3 sequence (P05106 27-788): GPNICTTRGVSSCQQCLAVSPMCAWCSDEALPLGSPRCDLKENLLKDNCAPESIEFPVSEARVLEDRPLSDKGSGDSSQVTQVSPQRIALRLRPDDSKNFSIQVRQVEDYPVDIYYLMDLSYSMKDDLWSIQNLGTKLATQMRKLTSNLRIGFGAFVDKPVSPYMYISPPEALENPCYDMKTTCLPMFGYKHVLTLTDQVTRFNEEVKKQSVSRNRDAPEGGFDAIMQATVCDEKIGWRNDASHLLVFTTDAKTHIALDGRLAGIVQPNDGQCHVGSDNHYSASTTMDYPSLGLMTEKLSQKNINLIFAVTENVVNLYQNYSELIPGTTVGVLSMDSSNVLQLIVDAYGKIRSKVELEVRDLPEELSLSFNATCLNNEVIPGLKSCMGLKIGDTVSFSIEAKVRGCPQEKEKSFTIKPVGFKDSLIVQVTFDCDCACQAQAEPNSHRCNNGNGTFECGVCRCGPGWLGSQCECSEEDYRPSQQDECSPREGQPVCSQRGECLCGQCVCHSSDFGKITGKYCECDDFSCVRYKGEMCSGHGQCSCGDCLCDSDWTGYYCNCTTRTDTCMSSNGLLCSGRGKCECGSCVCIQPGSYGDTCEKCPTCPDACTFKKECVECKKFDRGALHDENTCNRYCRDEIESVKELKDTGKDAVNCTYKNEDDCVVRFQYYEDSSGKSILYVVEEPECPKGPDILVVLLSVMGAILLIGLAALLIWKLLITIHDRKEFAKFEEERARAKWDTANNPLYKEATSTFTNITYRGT

junction protein JAM-C = target: T4, junction protein JAM-C (human, UniProt Q9BX67 32-310); assay: as above
T4 construct: whole, on cells
T4 sequence (looked up): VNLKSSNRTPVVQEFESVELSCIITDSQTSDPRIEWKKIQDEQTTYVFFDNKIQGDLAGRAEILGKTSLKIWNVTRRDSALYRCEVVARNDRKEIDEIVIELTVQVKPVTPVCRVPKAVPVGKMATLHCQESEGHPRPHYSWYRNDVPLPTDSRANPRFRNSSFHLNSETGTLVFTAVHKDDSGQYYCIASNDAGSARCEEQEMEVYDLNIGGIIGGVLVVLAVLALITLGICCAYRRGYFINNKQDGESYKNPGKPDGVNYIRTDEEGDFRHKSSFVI

occludin = target: T5, occludin (UniProt Q16625 1-522, limits assumed); assay: SPR, immobilised cANGPTL4
T5 sequence (looked up): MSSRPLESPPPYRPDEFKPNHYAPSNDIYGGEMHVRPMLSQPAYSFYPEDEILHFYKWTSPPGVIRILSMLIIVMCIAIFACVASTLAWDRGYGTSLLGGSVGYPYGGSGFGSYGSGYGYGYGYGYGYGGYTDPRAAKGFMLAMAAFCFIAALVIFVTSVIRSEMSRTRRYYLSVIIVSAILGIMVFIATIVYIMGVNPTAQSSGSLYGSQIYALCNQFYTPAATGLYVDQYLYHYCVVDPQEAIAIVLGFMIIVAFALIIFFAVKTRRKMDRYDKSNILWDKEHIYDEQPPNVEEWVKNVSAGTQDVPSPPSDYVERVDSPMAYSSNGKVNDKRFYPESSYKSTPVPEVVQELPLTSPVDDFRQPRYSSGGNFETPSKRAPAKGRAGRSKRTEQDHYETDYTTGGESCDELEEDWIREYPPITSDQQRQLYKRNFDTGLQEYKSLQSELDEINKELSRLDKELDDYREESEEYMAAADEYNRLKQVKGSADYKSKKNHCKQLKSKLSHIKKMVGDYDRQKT
Description: as §1

[4] = target: T6, VE-cadherin (SPR analyte) (UniProt P33151 48-599, limits assumed); assay: SPR (BIAcore 2000), immobilised cANGPTL4, global fit
T6 sequence (looked up): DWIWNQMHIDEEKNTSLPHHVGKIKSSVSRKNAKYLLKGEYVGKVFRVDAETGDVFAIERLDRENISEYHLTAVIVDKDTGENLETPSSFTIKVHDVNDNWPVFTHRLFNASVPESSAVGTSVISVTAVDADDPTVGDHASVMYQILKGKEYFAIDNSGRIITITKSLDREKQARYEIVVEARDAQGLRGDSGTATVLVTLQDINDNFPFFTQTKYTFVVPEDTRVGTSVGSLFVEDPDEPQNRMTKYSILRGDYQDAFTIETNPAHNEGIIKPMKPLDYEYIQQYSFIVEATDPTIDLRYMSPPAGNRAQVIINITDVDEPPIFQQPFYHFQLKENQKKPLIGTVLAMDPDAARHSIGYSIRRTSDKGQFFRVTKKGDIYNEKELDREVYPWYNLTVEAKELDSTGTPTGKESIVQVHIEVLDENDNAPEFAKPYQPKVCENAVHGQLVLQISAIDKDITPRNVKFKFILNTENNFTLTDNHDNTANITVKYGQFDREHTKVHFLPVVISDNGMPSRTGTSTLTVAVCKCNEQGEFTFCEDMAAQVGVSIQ
Description: as §1

[5] = target: T7, integrin α5β1 of primary human microvascular endothelial cells (HMVECs) (human, UniProt P08648 42-1049; P05556 21-798); assay: in situ proximity ligation assay on ECs, 250 cells
T7 construct: whole, on cells; Endogenous protein, detected by in situ PLA and by co-immunoprecipitation from HMVEC lysates
T7 sequence (P08648 42-1049, chain 1 of 2): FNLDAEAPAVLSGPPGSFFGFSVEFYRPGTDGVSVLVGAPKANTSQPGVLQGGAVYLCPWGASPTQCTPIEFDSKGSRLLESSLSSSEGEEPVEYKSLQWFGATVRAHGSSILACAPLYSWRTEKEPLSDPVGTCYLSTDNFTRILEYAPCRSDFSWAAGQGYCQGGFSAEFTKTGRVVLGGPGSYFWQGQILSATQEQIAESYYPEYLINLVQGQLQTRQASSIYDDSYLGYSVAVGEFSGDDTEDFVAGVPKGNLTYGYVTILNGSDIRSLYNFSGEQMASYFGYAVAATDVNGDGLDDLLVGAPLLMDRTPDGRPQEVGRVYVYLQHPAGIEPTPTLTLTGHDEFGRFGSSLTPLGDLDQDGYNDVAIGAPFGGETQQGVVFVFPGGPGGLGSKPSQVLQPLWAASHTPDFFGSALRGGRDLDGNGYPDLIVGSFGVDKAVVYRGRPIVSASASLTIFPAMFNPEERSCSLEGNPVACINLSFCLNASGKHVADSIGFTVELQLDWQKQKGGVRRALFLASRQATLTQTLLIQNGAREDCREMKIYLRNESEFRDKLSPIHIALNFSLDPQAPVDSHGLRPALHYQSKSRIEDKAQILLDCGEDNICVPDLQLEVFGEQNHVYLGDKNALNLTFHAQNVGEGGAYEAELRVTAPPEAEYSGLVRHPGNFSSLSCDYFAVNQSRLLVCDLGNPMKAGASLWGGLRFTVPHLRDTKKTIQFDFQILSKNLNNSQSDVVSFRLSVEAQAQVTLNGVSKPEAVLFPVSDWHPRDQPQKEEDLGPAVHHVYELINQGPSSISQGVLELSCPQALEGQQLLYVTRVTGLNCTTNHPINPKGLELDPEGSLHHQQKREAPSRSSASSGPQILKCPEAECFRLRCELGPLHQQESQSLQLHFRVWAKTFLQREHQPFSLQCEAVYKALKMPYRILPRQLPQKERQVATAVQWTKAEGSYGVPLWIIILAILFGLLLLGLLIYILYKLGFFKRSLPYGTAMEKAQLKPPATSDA
T7 sequence (P05556 21-798, chain 2 of 2): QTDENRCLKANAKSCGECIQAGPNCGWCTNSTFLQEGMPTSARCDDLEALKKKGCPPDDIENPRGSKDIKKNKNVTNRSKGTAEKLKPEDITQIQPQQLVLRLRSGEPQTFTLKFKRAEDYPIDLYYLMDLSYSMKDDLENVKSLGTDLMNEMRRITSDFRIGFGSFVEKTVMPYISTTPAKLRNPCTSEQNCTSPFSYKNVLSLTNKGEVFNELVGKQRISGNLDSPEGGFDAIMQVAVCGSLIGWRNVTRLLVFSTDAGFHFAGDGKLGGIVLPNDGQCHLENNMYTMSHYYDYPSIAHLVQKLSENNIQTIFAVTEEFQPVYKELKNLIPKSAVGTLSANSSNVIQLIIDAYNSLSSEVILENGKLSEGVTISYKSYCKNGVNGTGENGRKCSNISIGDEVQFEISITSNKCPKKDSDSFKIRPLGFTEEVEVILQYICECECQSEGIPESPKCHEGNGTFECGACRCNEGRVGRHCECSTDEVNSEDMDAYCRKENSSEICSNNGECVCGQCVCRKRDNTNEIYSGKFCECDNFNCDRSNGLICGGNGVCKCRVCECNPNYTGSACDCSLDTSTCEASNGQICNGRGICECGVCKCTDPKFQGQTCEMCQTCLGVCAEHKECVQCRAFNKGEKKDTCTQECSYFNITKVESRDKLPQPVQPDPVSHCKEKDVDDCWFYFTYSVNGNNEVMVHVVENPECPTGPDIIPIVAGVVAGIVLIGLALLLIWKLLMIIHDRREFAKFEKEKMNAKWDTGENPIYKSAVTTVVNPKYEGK

[6] = target: B1; assay: in situ proximity ligation assay on ECs, 250 cells
[7] = target: T8, VE-cadherin of primary human microvascular endothelial cells (HMVECs) (human, UniProt P33151 48-784); assay: in situ proximity ligation assay on ECs, 250 cells
T8 construct: whole, on cells; Endogenous protein, detected by in situ PLA and by co-immunoprecipitation
T8 sequence (looked up): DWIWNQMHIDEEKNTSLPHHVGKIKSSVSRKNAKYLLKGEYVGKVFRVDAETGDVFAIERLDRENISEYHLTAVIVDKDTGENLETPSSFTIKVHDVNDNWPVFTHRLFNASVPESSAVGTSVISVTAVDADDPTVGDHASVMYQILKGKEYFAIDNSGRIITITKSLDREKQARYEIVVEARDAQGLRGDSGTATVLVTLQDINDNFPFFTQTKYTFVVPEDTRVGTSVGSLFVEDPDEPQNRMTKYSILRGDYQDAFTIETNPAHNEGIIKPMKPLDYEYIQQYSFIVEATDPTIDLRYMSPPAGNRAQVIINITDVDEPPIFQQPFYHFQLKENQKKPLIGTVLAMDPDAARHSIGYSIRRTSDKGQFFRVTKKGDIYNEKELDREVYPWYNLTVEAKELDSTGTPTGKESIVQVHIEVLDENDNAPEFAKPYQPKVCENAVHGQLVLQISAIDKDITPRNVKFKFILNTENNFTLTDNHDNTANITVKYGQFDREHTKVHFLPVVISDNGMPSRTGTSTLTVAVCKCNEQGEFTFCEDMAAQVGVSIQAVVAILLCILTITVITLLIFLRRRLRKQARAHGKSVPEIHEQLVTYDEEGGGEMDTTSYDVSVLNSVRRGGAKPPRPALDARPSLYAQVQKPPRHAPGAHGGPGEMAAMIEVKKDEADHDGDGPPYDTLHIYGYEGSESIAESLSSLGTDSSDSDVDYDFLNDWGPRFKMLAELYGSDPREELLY

[8] = target: integrin β3 (control of the interaction analysis in paragraph 126) (UniProt P05106 27-718, limits assumed); assay: SPR control (sentence also cites references 16, 17)
claudin-5 (SPR analyte) = claudin-5 (SPR analyte) (UniProt O00501); assay: SPR (BIAcore 2000), immobilised cANGPTL4, global fit
[9] = target: recombinant integrin α5β1 (UniProt P08648); assay: as above
[10] = target: B1; assay: kinetic PLA in HMVECs in the presence of anti-integrin antibody, against the zero time point (FIG. 4C)
Description: (§2) (A, B and D, E) Immunofluorescence staining for ZO-1 (A, D) and transendothelial electrical resistance (TER) measurement (B, E) in confluent HMVEC monolayer. […] Treatments were for 3 or 6 h. HMVECs were counterstained with DAPI (blue) for nuclei and phalloidin (red) for actin stress fibers. Scale bar: 40 μm. White arrows indicate endothelial junction lesions. Data (means±S.D.) from 3 independent experiments. *, P<0.05; **, P<0.01. […] Values (means±S.D.) represent mean fold change in the number of interactions compared to the zero time point, as determined from n=3 independent experiments (˜600 HMVECs) using BlobFinder.

[11] = target: T8, VE-cadherin of primary human …; assay: as above
Description: as §2

Binder: B1
- binding result [1]: binds

B2: VE-cadherin EC3 (other, UniProt P33151 259-372, looked up)
chain: TQTKYTFVVPEDTRVGTSVGSLFVEDPDEPQNRMTKYSILRGDYQDAFTIETNPAHNEGIIKPMKPLDYEYIQQYSFIVEATDPTIDLRYMSPPAGNRAQVIINITDVDEPPIF
notes: domain: EC3
- binding result [2]: no binding

B3: junctional adhesion molecule A (JAM-A) (other, UniProt Q9Y624 28-238, looked up)
chain: SVTVHSSEPEVRIPENNPVKLSCAYSGFSSPRVEWKFDQGDTTRLVCYNNKITASYEDRVTFLPTGITFKSVTREDTGTYTCMVSEEGGNSYGEVKVKLIVLVPPSKPTVNIPSSATIGNRAVLTCSEQDGSPPSEYTWFKDGIVMPTNPKSTRAFSNSSYVLNPTTGELVFDPLSASDTGEYSCEARNGYGTPMTSNAVRMEAVERNVGV
- binding result [3]: no binding (tested: 0.16-5.0 µM)

Binder: B4
- binding result (Tie2): no binding
- binding result (Tie1): no binding
- binding result (integrin β3 of HMVECs): no binding
- binding result (junction protein JAM-C): no binding
- binding result (occludin): no binding (tested: 0.16-5.0 µM)
- Kd [4]: 112 nM
- PLA spots/cell [5]: 22.5 PLA spots/cell
- PLA spots/cell [6]: 12.3 PLA spots/cell
- PLA spots/cell [7]: 16.4 PLA spots/cell
- binding result [8]: no binding
- Kd (claudin-5 (SPR analyte)): 58.7 nM
- Kd [9]: 12.6 nM
- mean fold change in the interactions [10]: 0.4 fold
- mean fold change in the interactions [11]: 0.4 fold
